Reference: patent US20170313776A1 (SORRENTO THERAPEUTICS, published 2017)
Positions count from the first letter of the chain named. Names and notes keep the numbering of the source. One block for each binder: values may come before it.

Key:
[1] = molecular target: T1, PD-L1 expressed on CHO-PD-L1 cells (UniProt Q9NZQ7 19-290, limits assumed); assay: flow cytometry on CHO-PD-L1 cells
T1 construct: whole, on cells
From the text: (§1) This example illustrates in vitro data for cellular binding EC50 measurements and cell binding specificity. […] The experimental procedure was as follows: CHO-PD-1 cells and CHO-PD-L1 cells were obtained by stably transfecting CHO-K1 cells with PD-1 cDNA ORF clone (Origene RG210364) and PD-L1 cDNA ORF clone (Origene RG213071) respectively. After 2 weeks of Neomycin selection, clones were isolated by Fluorescence-activated cell sorting (FACS) and further expanded. […] For cell binding assays, 50,000 CHO-PD-1 cells, CHO-PD-L1 cells, and ES-2 cells were aliquoted into the wells of a 96-well, v-bottom plate in 100 μl FACS Buffer (PBS+2% FBS). A twelve point, 3× dilution curve of each anti-PD-1 antibody was made in FACS Buffer starting at 50 μg/ml (3.33×10⁻⁷M). Cells were spun down, washed twice with FACS Buffer, and then resuspended in 25 μl of antibody solution in triplicate. After 0.5 hr incubation, cells were washed 1× with FACS Buffer and resuspended in 50 μl PE-conjugated, goat anti-human IgG (γ-chain specific) secondary antibody (Southern Biotech Cat #2040-09). Cells were further incubated for 0.5 hr and then washed 1× with FACS Buffer. Cells were resuspended in 25 μl FACS Buffer and the median fluorescence intensity in the FL2-H channel was determined using the Intellicyt HTFC flow cytometer. Data was analyzed and plotted in Graph Pad Prism using non-linear regression fit.
(§2) Data points on the graph are shown as the median fluorescence intensity (MFI) of positively labeled cells depending on the antibody concentration +/− Std Error.

[2] = molecular target: T2, human PD-1 expressed on cells (human, UniProt Q15116 25-288); assay: flow cytometry on CHO-PD-1 cells
T2 construct: whole, on cells; One entry for cell-surface PD-1; also called CHO-PD-1 cells; Jurkat PD-1 cells
From the text: as §1, §2

[3] = molecular target: T3, recombinant human PD-1 protein (human, UniProt Q15116 25-167, limits assumed); assay: ELISA on recombinant human PD-1
T3 construct: also called monomeric recombinant human PD-1

[4] = molecular target: T4, recombinant cynomolgus PD-1 (cynomolgus); assay: ELISA on recombinant cynomolgus PD-1
T4 construct: also called cyno PD-1

[5] = molecular target: T2, human PD-1 expressed on cells; assay: flow cytometry on Jurkat T cells stably expressing human PD-1
From the text: Primary antibody binding to Jurkat PD-1 cells was detected by flow cytometry using either anti-heavy chain or light chain antibodies directly conjugated to fluorochromes (identical binding curves were obtained using either detection reagent).

[6] = molecular target: T5, recombinant human PD1 (His-tagged) protein (human, UniProt Q15116 25-167, limits assumed); assay: SPR, antibody captured on anti-human Fc, PD1/His as analyte, 1:1 Langmuir fit
T5 construct: not shown: His tag
Method: Anti-human Fc antibody was immobilized on CMS sensor chip with approximately 1000 RU. Antibodies (about 10 μg/ml) were captured for 60 s at a flow rate 10 μl/min.PD1/His was serially diluted in running buffer (HBS-EP). All measurements were conducted with a flow rate of 30 μL/min. Surfaces were regenerated with 3M MgCl₂ for 60 s. A 1:1 (Langmuir) binding model was used to fit the data.

recombinant mouse PD-1 = molecular target: T6, recombinant mouse PD-1 (mouse, UniProt Q02242 25-167, limits assumed); assay: ELISA, detection with anti-human IgG4 heavy chain or anti-human lambda light chain
T6 sequence (looked up): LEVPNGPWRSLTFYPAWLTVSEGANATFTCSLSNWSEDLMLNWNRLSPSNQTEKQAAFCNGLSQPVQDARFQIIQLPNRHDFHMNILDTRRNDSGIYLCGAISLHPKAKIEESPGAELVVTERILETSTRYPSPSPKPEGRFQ

[7] = molecular target: T3, recombinant human PD-1 protein; assay: Biacore, antibody captured on protein A, monomeric recombinant human PD-1 as analyte
[8] = molecular target: human CTLA-4 (recombinant) (human, UniProt P16410 36-161, limits assumed); assay: ELISA on coated recombinant protein, one antibody concentration (not given)
human CD28 (recombinant) = human CD28 (recombinant) (human, UniProt P10747 19-152); assay: as above
human ICOS (recombinant) = molecular target: T7, human ICOS (recombinant) (human, UniProt Q9Y6W8 21-140, limits assumed); assay: as above
T7 sequence (looked up): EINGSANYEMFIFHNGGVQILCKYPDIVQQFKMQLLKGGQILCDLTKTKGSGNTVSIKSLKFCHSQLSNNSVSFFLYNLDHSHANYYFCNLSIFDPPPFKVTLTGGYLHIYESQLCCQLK

[9] = molecular target: T2, human PD-1 expressed on cells; assay: flow cytometry on anti-CD3-activated PBMC
Method: (§3) This example illustrates in vitro data for cellular binding EC50 measurements. […] The experimental procedure is as follows. Peripheral blood mononuclear cells (PBMC) were added to the wells of a 24 well plate and stimulated anti-CD3 (3 ng/ml). After three days of culture the cells were harvested and added to the wells of wells of a 96-well, v-bottom plate in 100 μl FACS Buffer (PBS+2% FBS). A twelve point, 3× dilution curve of each anti-PD-1 antibody was made in FACS Buffer starting at 10 μg/ml (0.6×10⁻⁷M). Cells were spun down, washed twice with FACS Buffer, and then resuspended in 25 μl of antibody solution in triplicate. After 0.5 hr incubation, cells were washed 1× with FACS Buffer and resuspended in 50 μl PE-conjugated, goat anti-human IgG (γ-chain specific) secondary antibody (Southern Biotech Cat #2040-09). Cells were further incubated for 0.5 hr and then washed 1× with FACS Buffer. Cells were resuspended in 25 μl FACS Buffer and the median fluorescence intensity in the FL2-H channel was determined using the Intellicyt HTFC flow cytometer. Data was analyzed and plotted in Graph Pad Prism using non-linear regression fit.

[10] = molecular target: T2, human PD-1 expressed on cells; assay: flow cytometry on anti-CD3-activated PBMC; remark: listed apart in the source
Method: as §3

[11] = molecular target: T5, recombinant human PD1 (His-tagged) …; assay: BIAcore, mAb captured on anti-human Fc, His-tagged human PD1 as analyte

T1 sequence (Q9NZQ7 19-290 limits assumed): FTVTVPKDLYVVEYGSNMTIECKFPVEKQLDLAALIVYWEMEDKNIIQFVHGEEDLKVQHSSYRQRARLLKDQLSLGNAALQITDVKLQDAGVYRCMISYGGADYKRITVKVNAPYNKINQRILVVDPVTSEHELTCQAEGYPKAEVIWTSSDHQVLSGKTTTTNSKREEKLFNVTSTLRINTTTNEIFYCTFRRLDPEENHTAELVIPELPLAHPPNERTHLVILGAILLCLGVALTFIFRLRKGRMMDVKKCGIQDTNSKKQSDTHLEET
T2 sequence (Q15116 25-288): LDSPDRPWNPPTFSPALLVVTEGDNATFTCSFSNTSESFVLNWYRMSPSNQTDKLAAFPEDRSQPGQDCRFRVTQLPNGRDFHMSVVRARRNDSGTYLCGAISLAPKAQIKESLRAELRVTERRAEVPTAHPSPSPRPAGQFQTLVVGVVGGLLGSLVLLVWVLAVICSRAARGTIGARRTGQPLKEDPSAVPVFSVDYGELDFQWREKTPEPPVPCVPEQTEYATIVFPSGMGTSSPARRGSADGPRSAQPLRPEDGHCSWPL
T3 sequence (Q15116 25-167 limits assumed): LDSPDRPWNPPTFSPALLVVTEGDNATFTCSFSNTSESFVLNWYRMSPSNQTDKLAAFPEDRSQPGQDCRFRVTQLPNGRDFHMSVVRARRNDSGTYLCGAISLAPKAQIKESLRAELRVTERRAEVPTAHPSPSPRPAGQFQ
T5 sequence (Q15116 25-167 limits assumed): as above
Chain of human CTLA-4 (recombinant) (P16410 36-161 limits assumed): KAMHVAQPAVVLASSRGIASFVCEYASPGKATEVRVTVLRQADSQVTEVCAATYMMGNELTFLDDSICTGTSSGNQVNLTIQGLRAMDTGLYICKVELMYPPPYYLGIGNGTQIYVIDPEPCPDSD

- EC50 [2]: 2.8 nM
B1: RG2H10 (IgG) (antibody, V domains shown)
VH: QVQLQQSGPGLVRPSQTLSLSCDISGDSVSSNSATWNWIRQSPSRGLEWLGRTFYRSKWYHDYALSVKSRITINPDTSKNQFSLQLNSVSPGDTAVYFCVREDIDGRLDYWGQGTLVTVSS
VL: QPVLTQPASVSGSPGQSITISCTGTSSDVGGYNYVSWYQQHPGKAPKLMIYDVSNRPSGVSNRFSGSKSGNTASLAITGLQSDDDADYYCSAWDDSLNADVFGGGTKLTVL
notes: Detected with anti-human IgG (gamma chain specific); also called PD1 RG2H10
- binding result [1]: no binding (tested: 50 µg/ml (3.33×10^-7M) top concentration)

- EC50 [2]: 0.183 nM
B2: RG1B3 (IgG) (antibody, V domains shown)
VH: QVQLVQSGAEVKKPGASVKVSCKASGYTFTSYGISWVRQAPGQGLEWMGWISAYNGNTNYAQKLQGRVTMTTDTSTSTAYMELRSLRSDDTAVYYCARGLYGDEDYWGQGTLVTVSS
VL: LPVLTQPPSVSEVPGQRVTISCSGGISNIGSNAVNWYQHFPGKAPKLLIYYNDLLPSGVSDRFSASKSGTSASLAISGLRSEDEADYYCAAWDDNLSAYVFATGTKVTVL
notes: Detected with anti-human IgG (gamma chain specific); also called PD1 RG1B3
- binding result [1]: no binding (tested: 50 µg/ml (3.33×10^-7M) top concentration)

- EC50 [3]: 0.391 nM
- EC50 [4]: 0.84 nM
- EC50 [2]: 0.0358 nM
- EC50 [5]: 25.8 nM
- fold maximal binding against competitor 1 [5]: ~2 fold lower
- Ka [6]: 1.25e+09 M⁻¹
- Kd [6]: 0.802 nM
- koff [6]: 0.00104 s⁻¹
- kon [6]: 1.3e+06 M⁻¹ s⁻¹
- binding result (recombinant mouse PD-1): no binding
- Kd [7]: 3.2 nM
- fold affinity against competitor 3 [7]: ~10 fold
- binding result [8]: no binding
- binding result (human CD28 (recombinant)): no binding
- binding result (human ICOS (recombinant)): no binding
B3: anti-PD-1 antibody RG1H10 (IgG, isotype not stated in the assay) (antibody, V domains shown)
VH: QVQLVQSGSELKKPGASVKISCKASGYIFSDNGVNWVRQAPGQGLEWMGWINTKIGNPTYAQGFTGRFVFSLDTSISTTYLQISSLQAGDTAVYYCAREHDYYYGMDVWGQGTTVTVSS
VL: QSALTQPPSASGSPGQSVTISCTGTSSDVGGYNYVSWYQHHPGKAPKLMIYEVSKRPSGVPDRFSGSKSAITASLTISGLLTEDEADYYCSAWDDSLNADVFGGGTKVTVL
notes: also called PD1 RG1H10
- binding result [1]: no binding (tested: 50 µg/ml (3.33×10^-7M) top concentration)

- EC50 [2]: 0.223 nM
B4: H7 (IgG) (antibody, V domains shown)
VH: B3 VH with I76V
VL: QSVLTQPASVSGSPGQSVTISCTGSSSDVGAYNFVSWYRQYPGKAPKLLIYEVNKRPSDVPDRFSGSKFGNTASLTVSGLQADDEADYYCSSYAGSTDVFGTGTKVTVL
notes: Detected with anti-human IgG (gamma chain specific); also called PD1 H7
- binding result [1]: no binding (tested: 50 µg/ml (3.33×10^-7M) top concentration)

- EC50 [2]: 0.202 nM
B5: GA2 (IgG) (antibody, V domains shown)
VH: B3 VH with I76V
VL: QPVLTQPPSASGTPGQRVTISCSGSSSNIGTNTVNWYQQVPGTAPKLLIHGNDQRPSGVPDRFSGSKSDTSASLAITGLQSDDDADYYCSAWDDSLNADVFGGGTKLTVL
notes: Detected with anti-human IgG (gamma chain specific); also called PD1 GA2
- binding result [1]: no binding (tested: 50 µg/ml (3.33×10^-7M) top concentration)

- EC50 [2]: 0.115 nM
B6: SH-A4 (IgG) (antibody, V domains shown)
VH: B3 VH with I76V
VL: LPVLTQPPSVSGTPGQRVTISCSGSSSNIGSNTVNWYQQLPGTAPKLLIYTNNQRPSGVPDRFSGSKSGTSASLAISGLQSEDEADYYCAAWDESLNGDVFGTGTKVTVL
notes: Detected with anti-human IgG (gamma chain specific); also called PD1 SHA4
- binding result [1]: no binding (tested: 50 µg/ml (3.33×10^-7M) top concentration)

- EC50 [9]: 0.047 nM
- EC50 [10]: 0.047 nM
- Kd [11]: 1.6 nM
- koff [11]: 0.0014 s⁻¹
- kon [11]: 880000 M⁻¹ s⁻¹
B7: RG1H10 (IgG4 S228P) (antibody, V domains shown)
VH: B3 VH
VL: B3 VL
notes: also called RG1H10 as immunoglobulin gamma 4 with hinge mutation S228P

- EC50 [9]: 0.67 nM
- EC50 [10]: 0.67 nM
- Kd [11]: 1.3 nM
- koff [11]: 0.001 s⁻¹
- kon [11]: 750000 M⁻¹ s⁻¹
B8: RG1H10 (IgG1) (antibody, V domains shown)
VH: B3 VH
VL: B3 VL
notes: IgG1; also called RG1H10 as immunoglobulin gamma 1

- EC50 [2]: 0.779 nM
B9: RG4A6 (IgG) (antibody, V domains shown)
VH: EVQLVESGGGLVQPGGSLRLSCAASGFTFSSYWMHWVRQAPGKGLEWVSSISSSSSYIYYADSVKGRFTISRDNAKNSLYLQMNSLRAEDTAVYYCARDTLEYYGSGILENAMGYYGMDVWGQGTTVTVSS
VL: not shown
notes: Detected with anti-human IgG (gamma chain specific); also called PD1 RG4A6
- binding result [1]: no binding (tested: 50 µg/ml (3.33×10^-7M) top concentration)
